Data taken from US20160287713A1 (CALIFORNIA INSTITUTE FOR BIOMEDICAL RESEARCH, published 2016).
Residue numbers refer to the chain shown, from its start. In names and notes the source's numbering stands. Where no end group is shown, it is not given here. The star is where a group is joined. FA1 = tetradecanamide (myristoyl) lipid attached through an ethoxy-ethoxy-ethyl acetamide linker, made from Br-FA1, N-(2-(2-(2-(2-bromoacetamido)ethoxy)ethoxy)ethyl)tetradecanamide, CCCCCCCCCCCCCC(=O)NCCOCCOCCNC(=O)C*; FA2 = not defined here; FA3 = not defined here

T1: LGR7 (UniProt Q9HBX9 1-757, limits assumed)
T1 sequence (looked up): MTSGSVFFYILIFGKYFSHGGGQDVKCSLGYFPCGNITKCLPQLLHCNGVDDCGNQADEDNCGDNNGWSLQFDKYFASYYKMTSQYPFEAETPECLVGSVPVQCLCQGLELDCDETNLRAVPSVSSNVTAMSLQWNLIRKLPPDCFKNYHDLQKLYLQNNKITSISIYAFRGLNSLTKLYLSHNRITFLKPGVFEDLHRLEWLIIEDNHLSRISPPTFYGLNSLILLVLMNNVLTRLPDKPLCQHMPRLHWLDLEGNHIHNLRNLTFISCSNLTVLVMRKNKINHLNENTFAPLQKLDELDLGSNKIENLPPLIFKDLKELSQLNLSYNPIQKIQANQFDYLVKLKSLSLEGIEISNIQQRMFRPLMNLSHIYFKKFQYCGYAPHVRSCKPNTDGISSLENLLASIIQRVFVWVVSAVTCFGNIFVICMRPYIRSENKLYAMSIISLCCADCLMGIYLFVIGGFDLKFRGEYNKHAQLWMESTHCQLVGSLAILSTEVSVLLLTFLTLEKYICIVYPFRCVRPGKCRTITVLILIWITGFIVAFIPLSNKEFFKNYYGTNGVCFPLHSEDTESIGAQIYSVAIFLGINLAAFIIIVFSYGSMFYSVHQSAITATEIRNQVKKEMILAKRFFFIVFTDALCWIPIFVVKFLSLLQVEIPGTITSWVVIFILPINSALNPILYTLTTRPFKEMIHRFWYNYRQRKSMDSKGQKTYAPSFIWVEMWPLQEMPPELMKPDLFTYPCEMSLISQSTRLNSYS

B1: GSGG-Relaxin-single-chain (ligand)
chain: GSGGDSWMEEVIKLCGRELVRAQIAICGMSTWSGGGRGGRQLYSALANKCCHVGCTKRSLARFC
B2: Relaxin-B-D1AM25KM4K, A-Q1AH12K, B-S29C-FA1 (ligand)
chain 1: ASWKEEVIKLCGRELVRAQIAICGKSTWC(FA1)
chain 2: ALYSALANKCCKVGCTKRSLARFC
modifications: ends and bridges not checked; also: A and B chains disulfide-linked, pairing not given here
B3: Relaxin-B-D1A, A-Q1C-FA2 (ligand)
chain 1: ASWMEEVIKLCGRELVRAQIAICGMSTWS
chain 2: C(FA2)LYSALANKCCHVGCTKRSLARFC
modifications: ends and bridges not checked; also: A and B chains disulfide-linked, pairing not given here
B4: Relaxin-B-D1AM25KM4K, A-Q1AH12K, B-S29C-FA2 (ligand)
chain 1: ASWKEEVIKLCGRELVRAQIAICGKSTWC(FA2)
chain 2: ALYSALANKCCKVGCTKRSLARFC
modifications: ends and bridges not checked; also: A and B chains disulfide-linked, pairing not given here
B5: Relaxin-B-D1AM4KS29C-FA2 (ligand)
chain 1: ASWKEEVIKLCGRELVRAQIAICGMSTWC
chain 2: QLYSALANKCCHVGCTKRSLARFC
modifications: ends and bridges not checked; also: lipid conjugate FA2, site not given here
B6: Relaxin-B-D1A, A-A5C-FA3 (ligand)
chain 1: ASWMEEVIKLCGRELVRAQIAICGMSTWS
chain 2: QLYSC(FA3)LANKCCHVGCTKRSLARFC
modifications: ends and bridges not checked; also: A and B chains disulfide-linked, pairing not given here
B7: Relaxin-B-D1AS29C-XTEN288 (ligand)
chain 1: ASWMEEVIKLCGRELVRAQIAICGMSTWC
chain 2: QLYSALANKCCHVGCTKRSLARFC
chain 3: SAGSPTGPGSEPATSGSETPGTSESATPESGPGSEPATSGSETPGTSESATPESGPGTSTEPSEGSAPGSPAGSPTSTEEGTSESATPESGPGSEPATSGSETPGTSESATPESGPGSPAGSPTSTEEGSPAGSPTSTEEGTSTEPSEGSAPGTSESATPESGPGTSESATPESGPGTSESATPESGPGSEPATSGSETPGSEPATSGSETPGSPAGSPTSTEEGTSTEPSEGSAPGTSTEPSEGSAPGSEPATSGSETPGTSESATPESGPGTSTEPSEGSAPSASR
B8: Relaxin-B-D1AM25KS29C-FA2 (ligand)
chain 1: ASWMEEVIKLCGRELVRAQIAICGKSTWC
chain 2: QLYSALANKCCHVGCTKRSLARFC
modifications: ends and bridges not checked; also: lipid conjugate FA2, site not given here
B9: Relaxin-B-D1A, A-A5C-FA2 (ligand)
chain 1: ASWMEEVIKLCGRELVRAQIAICGMSTWS
chain 2: QLYSC(FA2)LANKCCHVGCTKRSLARFC
modifications: ends and bridges not checked; also: A and B chains disulfide-linked, pairing not given here
B10: Relaxin-B-D1AM25KM4K, A-Q1AH12K, B-S29C-FA3 (ligand)
chain 1: ASWKEEVIKLCGRELVRAQIAICGKSTWC(FA3)
chain 2: ALYSALANKCCKVGCTKRSLARFC
modifications: ends and bridges not checked; also: A and B chains disulfide-linked, pairing not given here
B11: Relaxin-B-D1A (ligand)
chain 1: ASWMEEVIKLCGRELVRAQIAICGMSTWS
chain 2: QLYSALANKCCHVGCTKRSLARFC
modifications: ends and bridges not checked; cysteine pairing not given here
B12: Pro-Relaxin-B-D1A (ligand)
chain: MIEEGRDSWMEEVIKLCGRELVRAQIAICGMSTWSKRKPTGYGSRKKRQLYSALANKCCHVGCTKRSLARFC
B13: Relaxin-B-D1A, A-R18C-FA2 (ligand)
chain 1: ASWMEEVIKLCGRELVRAQIAICGMSTWS
chain 2: QLYSALANKCCHVGCTKC(FA2)SLARFC
modifications: ends and bridges not checked; also: A and B chains disulfide-linked, pairing not given here
B14: Tev-Relaxin-C chain (ligand)
chain: HHHHHHHHENLYFQGSGGDSWMEEVIKLCGRELVRAQIAICGMSTWSKRSLSQEDAPQTPRPVAEIVPSFINKDTETINMMSEFVANLPQELKLTLSEMQPALPQLQQHVPVLKDSSLLFEEFKKLIRNRQSEAADSSPSELKYLGLDTHSRKKRQLYSALANKCCHVGCTKRSLARFC
B15: Tev-Relaxin-B-S29C-FA1-C-Chain (ligand)
chain: B14 chain with S47C
modifications: lipid FA1 on the Cys at B-chain position 29 (from Br-FA1, Example 5)
B16: Relaxin-B-D1A, A-R18C-FA1 (ligand)
chain 1: ASWMEEVIKLCGRELVRAQIAICGMSTWS
chain 2: QLYSALANKCCHVGCTKC(FA1)SLARFC
modifications: ends and bridges not checked; also: A and B chains disulfide-linked, pairing not given here
B17: Tev-Relaxin-single-chain (ligand)
chain: HHHHHHHHENLYFQGSGGDSWMEEVIKLCGRELVRAQIAICGMSTWSGGGRGGRQLYSALANKCCHVGCTKRSLARFC
B18: Tev-Relaxin-B-S29C-FA1-single-chain (ligand)
chain: B17 chain with S47C
modifications: lipid FA1 on the Cys at B-chain position 29 (from Br-FA1, Example 5)
B19: Tev-Relaxin-B-S29C-single-chain (ligand)
chain: B17 chain with S47C
B20: Relaxin-A-H12K, B-D1AS29C-FA2 (ligand)
chain 1: ASWMEEVIKLCGRELVRAQIAICGMSTWC(FA2)
chain 2: QLYSALANKCCKVGCTKRSLARFC
modifications: ends and bridges not checked; also: A and B chains disulfide-linked, pairing not given here
B21: Tev-Relaxin (ligand)
chain 1: HHHHHHHHENLYFQSGGDSWMEEVIKLCGRELVRAQIAICGMSTWS
chain 2: QLYSALANKCCHVGCTKRSLARFC
B22: Relaxin-B-D1A, A-Q1C-FA1 (ligand)
chain 1: ASWMEEVIKLCGRELVRAQIAICGMSTWS
chain 2: C(FA1)LYSALANKCCHVGCTKRSLARFC
modifications: ends and bridges not checked; also: A and B chains disulfide-linked, pairing not given here
B23: Relaxin-B-D1A, A-R18C-FA3 (ligand)
chain 1: ASWMEEVIKLCGRELVRAQIAICGMSTWS
chain 2: QLYSALANKCCHVGCTKC(FA3)SLARFC
modifications: ends and bridges not checked; also: A and B chains disulfide-linked, pairing not given here
B24: Relaxin-B-D1A, A-Q1C-FA3 (ligand)
chain 1: ASWMEEVIKLCGRELVRAQIAICGMSTWS
chain 2: C(FA3)LYSALANKCCHVGCTKRSLARFC
modifications: ends and bridges not checked; also: A and B chains disulfide-linked, pairing not given here

Assays:
[1] = target: T1, LGR7; test: cell-based or functional assay
[2] = target: T1, LGR7; test: cell-based or functional assay; remark: listed apart in the source

Row | Binder | Activity [1] [nM] | Activity, fold drop compared to relaxin [2] [fold]
1 | B1 | 1 | –
2 | B2 | – | 25
3 | B3 | – | 15
4 | B4 | – | 150
5 | B5 | – | 40
6 | B6 | – | 15
7 | B7 | – | 20
8 | B8 | – | 48
9 | B9 | – | 25
10 | B10 | – | 150
11 | B11 | – | 0
12 | B12 | – | 10
13 | B13 | – | 30
14 | B14 | 6 | –
15 | B15 | 21 | –
16 | B16 | – | 15
17 | B17 | 14 | –
18 | B18 | 29 | –
19 | B19 | 11 | –
20 | B20 | – | 16
21 | B21 | 2 | –
22 | B22 | – | 10
23 | B23 | – | 30
24 | B24 | – | 25
